This is an account of results in patent CN114106160A (ANYUAN MEDICINE SCIENCE AND TECH SHANGHAI LIMITED COMPANY, dated 2022).

Where two headings read alike, the source gives them in different places.

The target of test [1] is 刺突S-鼠Fc融合蛋白(S-mFc) (SARS-CoV-2; mouse, UniProt P0DTC2 14-1213). Nature of the test: flow cytometry, antibody blocks binding of S-mFc to 293T-ACE2 cells.
For test [2], the target named is SARS-CoV-2 S1蛋白 (ACRO Biosystems) (SARS-CoV-2, UniProt P0DTC2 16-685). Nature of the test: BLI, biotinylated SARS-CoV-2 S1 on SA sensor, antibody as analyte, 1:1 model.
The target in test [3] is T1, 刺突S-鼠Fc融合蛋白(S-mFc) (SARS-CoV-2; mouse, UniProt P0DTC2 14-1213).
T1 construct: domain: S蛋白全长区段
Nature of the test: flow cytometry, antibody blocks binding of S-mFc to 293T-ACE2 cells.

Test [4] addresses T2, SARS-CoV-2 S1蛋白 (ACRO Biosystems) (SARS-CoV-2, UniProt P0DTC2 16-685).
T2 construct: domain: S1
Nature of the test: BLI, biotinylated SARS-CoV-2 S1 on SA sensor, antibody as analyte, 1:1 model.

The target of test [5] is T2, SARS-CoV-2 S1蛋白 (ACRO Biosystems).

B1: 鼠源抗体S1B-48-2 (antibody, V domains shown)
VH: EVQLQQSGPELEKPGASVKMSCKASGYTFTNYVMHWVKQKPGQGLEWIGYFNPYNDDAEYNEKFKGKATLTSDKSSSTAYMVLSSLTSEDSAVYYCACLRQETDYWGQGTTLTVSS
VL: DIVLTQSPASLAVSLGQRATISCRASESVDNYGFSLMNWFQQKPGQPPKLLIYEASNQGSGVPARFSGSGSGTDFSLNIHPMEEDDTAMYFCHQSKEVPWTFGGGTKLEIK
The molecule B1 showed an IC50 in test [1] of 0.0108 µg/mL. In test [2], this molecule yielded a Kd of 0.0156 nM, a koff of 4.27e-06 s⁻¹ and a kon of 273000 M⁻¹ s⁻¹.

B2: 鼠源抗体S1B-64-2 (antibody, V domains shown)
VH: EVQLQQSGPELEKPGASVKMSCKASGYTFTNYVMHWVKQKPGQGLEWIGYFNPYNDGTKYNEKFKGKATLTSDKSSSTAYMELSSLTSEDSAVYYCACLRQRADYWGQGTTLTVSS
VL: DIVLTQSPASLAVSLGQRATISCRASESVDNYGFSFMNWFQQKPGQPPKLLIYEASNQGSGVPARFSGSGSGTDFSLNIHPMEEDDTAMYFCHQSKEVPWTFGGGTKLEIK
In test [2], B2 registered a Kd of 0.091 nM, a koff of 4.43e-05 s⁻¹ and a kon of 487000 M⁻¹ s⁻¹.

B3: 人源化抗体hS1B-48-2 (antibody, V domains shown)
VH: EVQLVQSGAEVKKPGASVKVSCKASGYTFTNYVMHWVRQAPGKGLEWIGYFNPYNDDAEYNEKFKGKATLTSDKSTSTAYMKLSSLRSEDTAVYYCASLRQETDYWGQGTTLTVSS
VL: DIVLTQSPSSLAVSLGERATINCRASESVDNYGFSLMNWFQQKPGKPPKLLIYEASNQGSGVPARFSGSGSGTDFTLKISRLQAEDVAVYFCHQSKEVPWTFGGGTKLEIKR
B3 came in with an IC50 in test [3] of 0.00582 µg/mL. In test [4], binding was put at a Kd of 0.00113 nM, the koff came to 9.81e-07 s⁻¹ and the kon worked out at 867000 M⁻¹ s⁻¹. In addition, the EC50 in test [5] amounted to 0.0197 µg/mL.
